Test results published in paper PMC12122975, “Structures of the Escherichia coli type 1 pilus during pilus rod assembly and after assembly termination” (Nature Communications, 2025).

B1: FimI, assembly terminator subunit of the type 1 pilus (natural protein)
chain: GNKWNTTLPGGNMQFQGVIIAETCRIEAGDKQMTVNMGQISSNRFHAVGEDSAPVPFVIHLRECSTVVSERVGVAFHGVADGKNPDVLSVGEGPGIATNIGVALFDDEGNLVPINRPPANWKRLYSGSTSLHFIAKYRATGRRVTGGIANAQAWFSLTYQ
B2: FimCHis, His-tagged type 1 pilus assembly chaperone FimC (natural protein)
chain: GVALGATRVIYPAGQKQEQLAVTNNDENSTYLIQSWVENADGVKDGRFIVTPPLFAMKGKKENTLRILDATNNQLPQDRESLFWMNVKAIPSMDKSKLTENTLQLAIISRIKLYYRPAKLALPPDQAAEKLRFRRSANSLTLINPTPYYLTVTELNAGTRVLENALVPPMGESTVKLPSDAGSNITYRTINDYGALTPKMTGVME
notes: source: E. coli BL21(DE3) (pFimCHis-cyt), purified (HisTrap, Source 30S); also co-expressed with FimD and FimH in E. coli Tuner (pETS1001) and purified as FimDCH
B3: FimC, type 1 pilus assembly chaperone (untagged) (natural protein)
chain: GVALGATRVIYPAGQKQEQLAVTNNDENSTYLIQSWVENADGVKDGRFIVTPPLFAMKGKKENTLRILDATNNQLPQDRESLFWMNVKAIPSMDKSKLTENTLQLAIISRIKLYYRPAKLALPPDQAAEKLRFRRSANSLTLINPTPYYLTVTELNAGTRVLENALVPPMGESTVKLPSDAGSNITYRTINDYGALTPKMTGVME
notes: source: E. coli BL21(DE3) (pFimC-cyt), purified (Q Sepharose, Source 30S, Phenyl Sepharose); also co-expressed with FimF or FimG in E. coli HM125 and purified from periplasmic extract as FimFC or FimGC

Key:
Test in all cases: cryo-EM structure
[1] = biological target: B1; conditions: both partners purified
[2] = biological target: B3; conditions: both partners purified
[3] = biological target: T1, FimD, type 1 pilus assembly platform (usher) (E. coli, UniProt P30130 46-878); conditions: both partners purified
T1 sequence: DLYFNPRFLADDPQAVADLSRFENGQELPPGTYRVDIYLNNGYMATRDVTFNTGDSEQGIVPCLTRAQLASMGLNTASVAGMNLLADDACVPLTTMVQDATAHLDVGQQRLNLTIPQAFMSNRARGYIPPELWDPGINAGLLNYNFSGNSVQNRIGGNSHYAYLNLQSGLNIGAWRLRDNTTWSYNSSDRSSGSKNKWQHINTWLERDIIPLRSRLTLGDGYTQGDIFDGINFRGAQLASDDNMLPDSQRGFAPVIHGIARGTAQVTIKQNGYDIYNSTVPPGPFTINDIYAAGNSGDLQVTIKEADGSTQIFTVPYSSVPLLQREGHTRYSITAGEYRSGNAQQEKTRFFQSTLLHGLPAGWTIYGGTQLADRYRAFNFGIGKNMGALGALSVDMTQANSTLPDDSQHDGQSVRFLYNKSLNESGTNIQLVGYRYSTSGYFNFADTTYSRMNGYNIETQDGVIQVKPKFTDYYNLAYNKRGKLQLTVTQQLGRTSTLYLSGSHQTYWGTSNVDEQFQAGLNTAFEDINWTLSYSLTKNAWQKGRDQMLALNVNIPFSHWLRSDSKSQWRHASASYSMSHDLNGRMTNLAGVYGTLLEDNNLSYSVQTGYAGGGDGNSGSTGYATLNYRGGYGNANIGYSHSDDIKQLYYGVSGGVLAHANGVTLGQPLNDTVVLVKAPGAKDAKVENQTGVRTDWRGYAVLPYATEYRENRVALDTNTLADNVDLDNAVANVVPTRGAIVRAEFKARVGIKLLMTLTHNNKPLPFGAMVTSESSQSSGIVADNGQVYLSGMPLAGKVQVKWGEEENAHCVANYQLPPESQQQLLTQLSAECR

cryo-EM structure = biological target: the molecule itself
[4] = biological target: B2; conditions: both partners purified

Binder	binding result [1]	binding result [2]	binding result [3]	binding result (cryo-EM structure)	binding result [4]
FimA, main subunit of the type 1 pilus rod (natural protein, also called FimAn; FimAn-1) AATTVNGGTVHFKGEVVNAACAVDAGSVDQTVQLGQVRTASLAQEGATSSAVGFNIQLNDCDTNVASKAAVAFLGTAIDAGHTNVLALQSSAAGSATNVGVQILDRTGAALTLDGATFSSETTLNNGTNTIPFQARYFATGAATPGAANADATFKVQYQ	binds	binds	binds	binds	binds
B1	–	–	binds	binds	binds
B2	–	–	binds	–	–
B3	–	–	binds	–	–
